Test results from patent publication US5037646A, “Processes for the treatment of vascular disease” (Genentech, Inc., priority 1990, dated 1991).
Where “and” joins values, the source holds several entries; their conditions need not be identical. Equal values may be shown once. Read-outs that look alike come from different tables or passages of the source.

Legend:
[1] = Pharmacokinetics of I-125 labeled t-PA, i.v. bolus in rabbits; format: in vivo, rabbit; design: B0 / t1/2b / A0 / AUMC × 10^- 6: unit not given here; details: carrier 1 mg/kg cold rt-PA; for CL (clearance rate): natural t-PA
Protocol: Comparative pharmacokinetic studies were performed in rabbits. I-125 labeled test t-PA, either wild type or N44 variant, 5 uCi/kg with a specific activity of 5 to 10 uCi/ug, and carrier wild type t-PA, 1.0 mg/kg, were coinjected, serial blood samples were collected, plasma prepared and the TCA (trichloroacetic acid) precipitable counts were determined at each time point. TCA precipitation was used in order to remove any small metabolites which appear at later times due to degradation of t-PA by the liver. The plasma concentration time curve for rt-PA was fit to a biexponential equation C-Aexp(-alphaXt)+Bexp(-betaXt). The curve for the des (1-44) rt-PA was fit to a monoexponential equation C-Aexp(-alphaXt). The clearance (Cl) was calculated by the formula Cl-DOSE/AUC, where AUC is the area under the plasma concentration time curve. […]

plasminogen = assay: In vitro plasminogen activation, two-stage assay with plasmin specific substrate S-2251; format: biochemical
Protocol: The ability of t-PA to activate plasminogen can be measured in an in vitro assay by preincubating t-PA and plasminogen and then adding the plasmin specific substrate H-D-valyl-H-leucyl-H-lysine-p-nitronilide (S-2251). The maximum rate of this reaction is observed in the presence of fibrin(ogen) or fragments of fibrin(ogen) which act as stimulators of the reaction.
The plasmin specific substrate S-2251 was used in a two-stage assay to measure the ability of the sample to activate plasminogen. Fibrin clots were made by incubating the sample with 0.02 ml of a 20 mg/ml fibrinogen solution with 1U of thrombin in a total volume of 0.12 ml of 0.05M Tris-HCl, 0.12M NaCl, 0.01% Tween 80, pH 7.4 for 30 min. at 37' C. Alternatively, the thrombin could be omitted and fibrinogen used as the stimulator. Glu-plasminogen solution, 0.03 ml of a 2.1 mg/ml solution, was then added. After 10 min at 37' C., 0.35 ml of 2.86 mM S-2251 in 0.037M Tris, 0.86 NaCl, 0.007% Tween 80, pH 7.4) were added. This mixture was incubated for five minutes then the reaction was stopped by the addition of 0.1 ml of 50% glacial acetic acid. Absorbance at 405 nm was measured. The activity was expressed as the change in absorbance per nanogram per minute in the presence of substrate.
The stimulation is the ratio of the specific activity of the sample containing fibrin and the specific activity of the sample not containing fibrin.

[2] = In vitro protease amidolytic assay with S-2288 substrate; format: biochemical; details: S-2288, 23 nM protein, pH 7.4
Protocol: The activity of des (1-44) t-PA in a protease amidolytic assay was compared to that of natural t-PA using the S-2288 paranitroanilide chromogenic substrate (Helena Labs). The S-2288 paranitroanilide substrate provides a direct measurement of protease amidolytic activity. The kinetic constants for t-PA and des 1-44 t-PA were determined with the S-2288 substrate using an H-P diode array spectrophotometer (HP8451-A). Hydrolysis of the substrate was measured continuously at two substrate concentrations (1.0 mM and 0.1 mM) while the protein concentrations were held constant at 23 nM in a buffer composed of 0.05M Tris-HCl, 0.12M NaCl, 0.01% Tween 80, pH 7.4. Using the differential form of the Michaelis-Menten equation and a non-linear regression the Km and Vmax were calculated from the curves of the progress of the reaction.

[3] = monkeys; cited from earlier work
[4] = rabbits; cited from earlier work
[5] = cited from earlier work
fibrin clot = assay: In vitro fibrin clot lysis assay with saturating plasminogen; format: biochemical; details: t-PA = 1.0
Text: In order to further compare the ability of des 1-44 t-PA to activate plasminogen in the presence of fibrin(ogen), it was compared to t-PA in an assay which measures the ability of t-PA and saturating plasminogen to lyse a fibrin clot.

[6] = individual rabbits #A, #C, #E, #G

## natural t-PA: human tissue plasminogen activator, amino acids 1-527, whether obtained from natural or recombinant sources
[1]; MEAN
  AUMC × 10^- 6: 601.493
  VDSS: 0.213336 L/kg
  t1/2b: 28.868
[1]; MEAN, biexponential fit
  A0: 275201
  B0: 30352.649
[1]; MEAN, unit from b248, listed as rT-PA
  t1/2a: 3.067 min
[1]; MEAN, unit from b248, listed as rt-PA
  t1/2a: about 3.1 minutes
[1]; MEAN, listed as rT-PA
  CL (clearance rate): 8.357 mL/min/kg
[1]; MEAN, listed as rt-PA
  CL (clearance rate): about 8.4 ml/min/kg
[1]; [6]
  A0: 247990 and 306059 and 255904 and 290852
  AUMC × 10^- 6: 789.510 and 452.925 and 637.710 and 525.828
  B0: 30144.320 and 32920.033 and 27005.306 and 31340.936
  CL: 7.063 mL/min/kg and 9.222 mL/min/kg and 8.567 mL/min/kg and 8.577 mL/min/kg
  VDSS: 0.209553 L/kg and 0.197899 L/kg and 0.232427 L/kg and 0.213466 L/kg
  t1/2a: 3.716 min and 2.645 min and 3.334 min and 2.575 min
  t1/2b: 33.236 and 23.987 and 31.782 and 26.467
plasminogen; With Fibrin Clots
  Stim (stimulation: specific activity with / without): 100
plasminogen; With Fibrin Clots, relative to t-PA
  rel (relative activity): 100%
plasminogen; With Fibrinogen
  Stim (stimulation: specific activity with / without): 100
plasminogen; With Fibrinogen, relative to t-PA
  +Fgn rel (relative activity): 100%
plasminogen; in the presence of fibrin
  increase of activity in the presence of fibrin: about 50 fold
[2]
  kcat: 17.9 s⁻¹
[3]
  nominal half-life: ~3.5 min
[4]
  nominal half-life: about 2 minutes
[5]; beta phase
  t1/2b: about 30 minutes
[5]; dominant alpha phase
  t1/2a: about 2.2 minutes
[5]; where Co=100
  t1/2a component: about 95%
  t1/2b component: about 5%
Fibrin clot
  Clot lysis (relative units): 1.0 relative units
